Measurements published in US20100216721A1.

Experiments:
[1] = target: HIV-1 92UG037-08 gp120 (HIV-1 strain 92UG037-08); assay: SPR (Biacore 3000); peptide over immobilized gp120
[2] = target: HIV-1 SF162 gp120 (HIV-1 strain SF162), P19550; assay: SPR (Biacore 3000); peptide over immobilized gp120

Binder | Kd [1] [nM] | Kd [2] [nM]
RINNIPWSEAMM (modifications not checked) [HNG-105] | 1840 | 70.5
RINNIPWSEAMM (modifications not checked) [HNG-156] | 16.3 | 9
